Assay results reported in patent US20240287138A1 (Merck Sharp & Dohme, published 2024).
Numbered stars: 1 amine (or outer) side, 2 acyl side, 3 side chain; on linkers, the order of the positions; unused ones are H or OH. Bridge positions count the residues as written; N and C are the ends. Square brackets hold non-standard residues; d marks the D form. Primed or numbered codes have the meaning given here. NEtCNG = 2-(2-Cyanoethylamino)acetic acid ((2-cyanoethyl)glycine), N#CCCN(CC(=O)[*:2])[*:1]; bhcLeu = (1R,3S)-3-aminocyclopentane-1-carboxylic acid, O=C([C@@H]1CC[C@H](N[*:1])C1)[*:2]; Trp(βS-Me,7-OMe) = COc1cccc2c([C@H](C)[C@H](N)C(=O)O)c[nH]c12; Trp(βS-Me) = C[C@@H](c1c[nH]c2ccccc12)[C@H](N)C(=O)O; Trp(7-Cl) = N[C@@H](Cc1c[nH]c2c(Cl)cccc12)C(=O)O; Phe(3-COOH) = N[C@@H](Cc1cccc(C(=O)O)c1)C(=O)O; Phe(4-CONH2) = NC(=O)c1ccc(C[C@H](N)C(=O)O)cc1; Phe(4-COOH) = N[C@@H](Cc1ccc(C(=O)O)cc1)C(=O)O; Trp(7-aza) = N[C@@H](Cc1c[nH]c2ncccc12)C(=O)O; Phe(4-CH2NH2) = NCc1ccc(C[C@H](N)C(=O)O)cc1; dPro(trans-4-F) = O=C(O)[C@H]1C[C@H](F)CN1; 3Pal(6-OMe) = COc1ccc(C[C@H](N)C(=O)O)cn1; Pip(5R-OH) = O=C(O)[C@@H]1CC[C@@H](O)CN1; αMeW = C[C@](N)(Cc1c[nH]c2ccccc12)C(=O)O; Ala(2-furyl) = N[C@@H](Cc1ccco1)C(=O)O; 2Nal = N[C@@H](Cc1ccc2ccccc2c1)C(=O)O; Pip(4-aza) = O=C(O)[C@@H]1CNCCN1; 4Pal = N[C@@H](Cc1ccncc1)C(=O)O; NMeE = CN[C@@H](CCC(=O)O)C(=O)O; 2SBrBu = not defined here; 2SBrPr = not defined here; NMeS = CN[C@@H](CO)C(=O)O; Pip = O=C(O)[C@@H]1CCCCN1; αMeS = C[C@](N)(CO)C(=O)O; Nle = CCCC[C@H](N)C(=O)O; Pip2c = not defined here; SBrPh = not defined here; Ahp′ = not defined here; Dab = NCC[C@H](N)C(=O)O; Spip = not defined here; Dap = NC[C@H](N)C(=O)O; Sar = CNCC(=O)O

molecular target: T1, TNFR1 on THP-1 Lucia NF-κB cells (UniProt P19438 30-455, limits assumed); test: cell-based or functional assay
T1 sequence (looked up): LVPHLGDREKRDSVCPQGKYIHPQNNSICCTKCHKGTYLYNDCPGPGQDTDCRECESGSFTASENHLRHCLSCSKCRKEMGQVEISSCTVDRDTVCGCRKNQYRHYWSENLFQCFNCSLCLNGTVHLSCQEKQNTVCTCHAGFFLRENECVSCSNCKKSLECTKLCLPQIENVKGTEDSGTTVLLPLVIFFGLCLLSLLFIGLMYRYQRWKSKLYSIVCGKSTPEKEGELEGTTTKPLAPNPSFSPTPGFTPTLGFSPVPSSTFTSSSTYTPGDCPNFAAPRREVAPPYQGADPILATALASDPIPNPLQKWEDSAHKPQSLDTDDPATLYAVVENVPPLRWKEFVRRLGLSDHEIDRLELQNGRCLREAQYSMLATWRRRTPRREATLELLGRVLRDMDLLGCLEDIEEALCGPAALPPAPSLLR

Row | Binder | THP-1 IC50 [nM]
1 | cyclo([bhcLeu][LysMe2][4Pal][Pip(5R-OH)]W[NMeE]N[4Pal][Trp(7-Cl)][αMeS][Phe(4-CONH2)]Y[Sar][Trp(βS-Me,7-OMe)]) [SEQ ID NO. 238] | 0.7
2 | 2SBrPr-[Nle][Phe(4-CH2NH2)]S[Trp(7-aza)][NMeE]N[4Pal][Trp(7-Cl)][αMeS][Phe(4-CONH2)]Y[Sar][Trp(βS-Me,7-OMe)]C-NH2 (thioether N-14; reading uncertain; also: printed as cyclo(2SBrPr-Nle-Phe4CH2NH2-S-Trp7az-NMeE-N-4Pal-Trp7Cl-aMeS-Phe4CONH2-Y-Sar-SbMeW7OMe-C)-NH2) [SEQ ID NO. 250] | 2.4
3 | XXXXENXXXXYGXC (not fully specified; cyclo(2SBrPr-Nle-4Pal-Bav-Trp7az-NMeE-N-4Pal-Trp7Cl-aMeS-Phe4CONH2-Y-Sar-SbMeW7OMe-C)-NH2) [SEQ ID NO. 273] | 4.1
4 | {CH2CO}-[Nle][4Pal][Pip(4-aza)][Trp(7-aza)][NMeE]N[4Pal][Trp(7-Cl)][αMeS][Phe(4-COOH)]Y[Sar][Trp(βS-Me,7-OMe)]CGEE-NH2 (thioether N-14; SMILES CCCC[C@@H]1NC(=O)CSC[C@@H](C(=O)NCC(=O)N[C@@H](CCC(=O)O)C(=O)N[C@@H](CCC(=O)O)C(N)=O)NC(=O)[C@H]([C@@H](C)c2c[nH]c3c(OC)cccc23)NC(=O)CN(C)C(=O)[C@H](Cc2ccc(O)cc2)NC(=O)[C@H](Cc2ccc(C(=O)O)cc2)NC(=O)[C@](C)(CO)NC(=O)[C@H](Cc2c[nH]c3c(Cl)cccc23)NC(=O)[C@H](Cc2ccncc2)NC(=O)[C@H](CC(N)=O)NC(=O)[C@H](CCC(=O)O)N(C)C(=O)[C@H](Cc2c[nH]c3ncccc23)NC(=O)[C@@H]2CNCCN2C(=O)[C@H](Cc2ccncc2)NC1=O) [SEQ ID NO. 255] | 6.5
5 | {CH2CO}-[Nle][4Pal][NMeS]W[NMeE]N[4Pal][Trp(7-Cl)][αMeS][Phe(4-COOH)][Phe3CONH2][Sar][Trp(βS-Me,7-OMe)]C-NH2 (thioether N-14) [SEQ ID NO. 270] | 2.2
6 | {CH2CO}-[Nle][4Pal][Pip(4-aza)]W[dP]N[Ala(2-furyl)][Trp(7-Cl)][αMeS][Phe(4-COOH)]Y[Sar][Trp(βS-Me,7-OMe)]C-NH2 (thioether N-14; SMILES CCCC[C@@H]1NC(=O)CSC[C@@H](C(N)=O)NC(=O)[C@H]([C@@H](C)c2c[nH]c3c(OC)cccc23)NC(=O)CN(C)C(=O)[C@H](Cc2ccc(O)cc2)NC(=O)[C@H](Cc2ccc(C(=O)O)cc2)NC(=O)[C@](C)(CO)NC(=O)[C@H](Cc2c[nH]c3c(Cl)cccc23)NC(=O)[C@H](Cc2ccco2)NC(=O)[C@H](CC(N)=O)NC(=O)[C@H]2CCCN2C(=O)[C@H](Cc2c[nH]c3ccccc23)NC(=O)[C@@H]2CNCCN2C(=O)[C@H](Cc2ccncc2)NC1=O) [SEQ ID NO. 236] | 4.2
7 | {CH2CO}-[LysN3][4Pal][Dap][Trp(βS-Me)][dP]N[4Pal][Trp(7-Cl)][αMeS][Phe(4-COOH)][Phe(4-CH2NH2)][Sar][αMeW]C-NH2 (thioether N-14) [SEQ ID NO. 245] | 9.4
8 | SBrPh-[Nle][4Pal]S[Trp(7-aza)][NMeE]N[4Pal][Trp(7-Cl)][αMeS][Phe(4-COOH)]Y[Sar][αMeW]C-NH2 (thioether N-14; reading uncertain; also: printed as cyclo(SBrPh-Nle-4Pal-S-Trp7az-NMeE-N-4Pal-Trp7Cl-aMeS-Phe4COOH-Y-Sar-aMeW-C)-NH2) [SEQ ID NO. 274] | 3.2
9 | cyclo([bhcLeu][Nle][3Pal(6-OMe)][Pip(4-aza)]W[NMeE]N[4Pal][Trp(7-Cl)][αMeS][Phe(4-COOH)]Y[Sar][Trp(βS-Me,7-OMe)]) (SMILES CCCC[C@@H]1NC(=O)[C@@H]2CC[C@@H](C2)NC(=O)[C@H]([C@@H](C)c2c[nH]c3c(OC)cccc23)NC(=O)CN(C)C(=O)[C@H](Cc2ccc(O)cc2)NC(=O)[C@H](Cc2ccc(C(=O)O)cc2)NC(=O)[C@](C)(CO)NC(=O)[C@H](Cc2c[nH]c3c(Cl)cccc23)NC(=O)[C@H](Cc2ccncc2)NC(=O)[C@H](CC(N)=O)NC(=O)[C@H](CCC(=O)O)N(C)C(=O)[C@H](Cc2c[nH]c3ccccc23)NC(=O)[C@@H]2CNCCN2C(=O)[C@H](Cc2ccc(OC)nc2)NC1=O) [SEQ ID NO. 241] | 1.4
10 | {CH2CO}-[Nle][4Pal][Pip][Trp(7-aza)][NEtCNG]N[4Pal][Trp(7-Cl)][αMeS][Phe(4-COOH)]Y[Sar][Trp(βS-Me,7-OMe)]C-NH2 (thioether N-14; SMILES CCCC[C@@H]1NC(=O)CSC[C@@H](C(N)=O)NC(=O)[C@H]([C@@H](C)c2c[nH]c3c(OC)cccc23)NC(=O)CN(C)C(=O)[C@H](Cc2ccc(O)cc2)NC(=O)[C@H](Cc2ccc(C(=O)O)cc2)NC(=O)[C@](C)(CO)NC(=O)[C@H](Cc2c[nH]c3c(Cl)cccc23)NC(=O)[C@H](Cc2ccncc2)NC(=O)[C@H](CC(N)=O)NC(=O)CN(CCC#N)C(=O)[C@H](Cc2c[nH]c3ncccc23)NC(=O)[C@@H]2CCCCN2C(=O)[C@H](Cc2ccncc2)NC1=O) [SEQ ID NO. 228] | 4
11 | {CH2CO}-[Nle][4Pal][Pip(4-aza)]W[NMeE]N[4Pal][Trp(7-Cl)][αMeS][Phe(3-COOH)]Y[Sar][Trp(βS-Me,7-OMe)]C-NH2 (thioether N-14; SMILES CCCC[C@@H]1NC(=O)CSC[C@@H](C(N)=O)NC(=O)[C@H]([C@@H](C)c2c[nH]c3c(OC)cccc23)NC(=O)CN(C)C(=O)[C@H](Cc2ccc(O)cc2)NC(=O)[C@H](Cc2cccc(C(=O)O)c2)NC(=O)[C@](C)(CO)NC(=O)[C@H](Cc2c[nH]c3c(Cl)cccc23)NC(=O)[C@H](Cc2ccncc2)NC(=O)[C@H](CC(N)=O)NC(=O)[C@H](CCC(=O)O)N(C)C(=O)[C@H](Cc2c[nH]c3ccccc23)NC(=O)[C@@H]2CNCCN2C(=O)[C@H](Cc2ccncc2)NC1=O) [SEQ ID NO. 249] | 4.4
12 | {CH2CO}-[Nle]H[Pip2c][Trp(7-aza)][NMeE]N[4Pal][Trp(7-Cl)][αMeS][Phe(4-COOH)]Y[Sar][Trp(βS-Me,7-OMe)]C-NH2 (thioether N-14; reading uncertain; also: printed as cyclo(ClAc-Nle-H-Pip2c-Trp7az-NMeE-N-4Pal-Trp7Cl-aMeS-Phe4COOH-Y-Sar-SbMeW7OMe-C)-NH2) [SEQ ID NO. 264] | 8.1
13 | {CH2CO}-[Nle][4Pal][Dab][Trp(7-aza)][NMeE]N[4Pal][Trp(7-Cl)][αMeS][Phe(4-COOH)]Y[Sar][αMeW]C-NH2 (thioether N-14; SMILES CCCC[C@@H]1NC(=O)CSC[C@@H](C(N)=O)NC(=O)[C@](C)(Cc2c[nH]c3ccccc23)NC(=O)CN(C)C(=O)[C@H](Cc2ccc(O)cc2)NC(=O)[C@H](Cc2ccc(C(=O)O)cc2)NC(=O)[C@](C)(CO)NC(=O)[C@H](Cc2c[nH]c3c(Cl)cccc23)NC(=O)[C@H](Cc2ccncc2)NC(=O)[C@H](CC(N)=O)NC(=O)[C@H](CCC(=O)O)N(C)C(=O)[C@H](Cc2c[nH]c3ncccc23)NC(=O)[C@H](CCN)NC(=O)[C@H](Cc2ccncc2)NC1=O) [SEQ ID NO. 277] | 3
14 | 2SBrBu-[Nle][4Pal][Spip]W[NMeE]N[4Pal][Trp(7-Cl)][αMeS][Phe(4-CONH2)]Y[Sar][Trp(βS-Me,7-OMe)]C-NH2 (thioether N-14; reading uncertain; also: printed as cyclo(2SBrBu-Nle-4Pal-Spip-W-NMeE-N-4Pal-Trp7Cl-aMeS-Phe4CONH2-Y-Sar-SbMeW7OMe-C)-NH2) [SEQ ID NO. 246] | 4.3
15 | {CH2CO}-[Nle][4Pal][Pip(4-aza)]W[dPro(trans-4-F)]N[4Pal][Trp(7-Cl)][αMeS][Phe(4-COOH)]Y[Sar][Trp(βS-Me,7-OMe)]C-NH2 (thioether N-14; SMILES CCCC[C@@H]1NC(=O)CSC[C@@H](C(N)=O)NC(=O)[C@H]([C@@H](C)c2c[nH]c3c(OC)cccc23)NC(=O)CN(C)C(=O)[C@H](Cc2ccc(O)cc2)NC(=O)[C@H](Cc2ccc(C(=O)O)cc2)NC(=O)[C@](C)(CO)NC(=O)[C@H](Cc2c[nH]c3c(Cl)cccc23)NC(=O)[C@H](Cc2ccncc2)NC(=O)[C@H](CC(N)=O)NC(=O)[C@H]2C[C@H](F)CN2C(=O)[C@H](Cc2c[nH]c3ccccc23)NC(=O)[C@@H]2CNCCN2C(=O)[C@H](Cc2ccncc2)NC1=O) [SEQ ID NO. 279] | 1.4
16 | {CH2CO}-[Ahp′][4Pal]S[Trp(βS-Me)][dP]N[Phe(4-COOH)][2Nal][αMeS][Phe(4-COOH)]H[Sar][αMeW]C-NH2 (thioether N-14; reading uncertain; also: printed as cyclo(ClAc-Ahp-4Pal-S-SbMeW-dP-N-Phe4COOH-2Nal-aMeS-Phe4COOH-H-Sar-aMeW-C)-NH2) [SEQ ID NO. 237] | 20.8
